Source: patent US20250282876A1, “STABLE Fc FRAGMENTS, CONJUGATES, COMPOSITIONS, AND METHODS OF USE” (PURDUE RESEARCH FOUNDATION, priority 2022, published 2025)

How the values were obtained:
[1] = target: His-tagged human FcγR variant CD32b (human) (UniProt P31994); test: BLI (Octet HTX), His-tagged FcγR on anti-Penta-HIS biosensors, Fc in solution, 1:1 fit
[2] = target: His-tagged human FcγR variant CD32b (human) (UniProt P31994); test: BLI (Octet HTX), His-tagged FcγR on anti-Penta-HIS biosensors, 1:1 fit; * denotes weak binding/inaccurate KD

Row | Substance | Kd [1] [µM] | Kd [2] [µM]
1 | IgG1-CH2-CH3-DLE mutant (Ser239Asp/Ala330Leu/Ile332Glu), monomeric Fc fragment (from UniProt P0DOX5 218-449) | 0.00134 | 
2 | IgG1-CH2-CH3-WT, wild-type Fc region of human IgG1 (from UniProt P0DOX5 218-449) |  | 3.76
